Laboratory results published in patent US20230220111A1 (BEIJING TUO JIE BIOPHARMACEUTICAL, published 2023).
Numbering of substitutions follows the chain as printed.

B1: antibody 3807 (antibody, V domains shown)
VH: EVQLQQSGAELVRPGTSVKLSCIASGFNIKDDYMHWVKQRPEQGLEWIGWIDPENGDTEYASKFQGKATITADTSANTAYLQFSSLTSEDTAVYYCLYGNFYYFDYWGQGTTLTVSS
VL: QIVLTQSPAIMSASPGEKVTMTCSASSSINYMHWYQQKPGTSPKRWIYDTSKLASGVPARFSGSGSGTSYSLTISSMEAEDAATYYCHQRSFSPLTFGAGTKLELK
notes: Murine variable regions; also called murine antibody 3807; hybridoma clone 3807
B2: antibody 3871 (antibody, V domains shown)
VH: QVQLVQSGAEVKKPGSSVKVSCKASGFNIKDDYMHWVRQAPGQGLEWMGWIDPENGDTEYASKFQGRVTITADESTSTAYMELSSLRSEDTAVYYCLYGNFYYFDYWGQGTTVTVSS
VL: EIVLTQSPATLSLSPGERATLSCSASSSINYMHWYQQKPGQAPKRWIYDTSKLASGVPARFSGSGSGTDFTLTISSLEPEDFAVYYCHQRSFSPLTFGQGTKLEIK
notes: Humanized from 3807: VH is 3807-VH1 and VL is 3807-VL3
B3: antibody 3882 (antibody, human IgG4 S228P, kappa, V domains shown)
VH: B2 VH with F27G, N28T, I29F, K30S
VL: EIVLTQSPATLSLSPGERATLSCSASSSINYMHWYQQKPGQAPKRWIYDTSKLASGVPARFSGSGSGTDFTLTISSLEPEDFAVYYCHQRSFSPLTFGQGTKLEIKR
B4: antibody 3875 (antibody, V domains shown)
VH: B2 VH with E74T, T76A, S77N
VL: B2 VL
notes: Humanized from 3807: VH is 3807-VH5 and VL is 3807-VL3
B5: antibody 0012 (antibody, V domains shown)
VH: QVQLQQSGAEVKKPGASVKVSCKVSGYTLTELSMHWVRQAPGKGLEWMGGFDPEDGETIYAQKFQGRVTMTEDTSTDTAYMELSSLRSEDTAVYYCATDPHRTWWRYFDWLYPRGMDVWGQGTTVTVSS
VL: EIVMTQSPGTLSLSPGERATLSCRASQTVGKNYLAWYQQKPGQAPRLLIYGASNRATGIPDRFSGSGSGTDFTLTISRLEPEDFGTYYCQQFRSYPYTFGQGTKVEIK
B6: antibody 1209 (0012-K3) (antibody, human IgG1, kappa, V domains shown)
VH: B5 VH with E31S, L32I, S33L, E54Q, I59V
VL: EIVMTQSPGTLSLSPGERATLSCRASQTVGKNYLAWYQQKPGQAPRLLIYEASVRALGIPDRFSGSGSGTDFTLTISRLEPEDFGTYYCQQFRSYPYTFGQGTKVEIKR
B7: BAY1213790 (antibody, human IgG1, kappa, V domains shown)
VH: EVQLLESGGGLVQPGGSLRLSCAASGFTFSQYGMDWVRQAPGKGLEWVSGIGPSGGSTVYADSVKGRFTISRDNSKNTLYLQMNSLRAEDTAVYYCTRGGPYYYYGMDVWGQGTTVTVSS
VL: DIQMTQSPSSLSASVGDRVTITCQASQDISNYLNWYQQKPGKAPKLLIYDASNLETGVPSRFSGSGSGTDFTFTISSLQPEDIATYYCQQADSFPVTFGGGTKVEIKR
B8: antibody 1267 (Kg3g) (antibody, human IgG1, kappa, V domains shown)
VH: B5 VH with Q5V, E31S, L32I, S33L, E54Q, I59V
VL: B6 VL with M4L, G85A, T86V
notes: Heavy chain is VH + human CH1 + IgG1 Fc

target: T1, Human FXI protein (coagulation factor XI) (human, UniProt P03951 19-625); assay: cell-based or functional assay

Row | aPTT1.5 (concentration prolonging aPTT by 50% relative to PBS), human blood [µg/mL] | Binder
1 | 1.33 | B1
2 | 0.88 | B2
3 | 0.63 | B3
4 | 0.87 | B4
5 | 14.6 | B5
6 | 4.68 | B6
7 | 2.15 | B7

target: monkey FXI (in monkey plasma) (monkey); assay: cell-based or functional assay

Row | aPTT1.5 (concentration prolonging aPTT by 50% relative to PBS), monkey blood [µg/mL] | Binder
8 | 1 | B1
9 | 1.12 | B2
10 | 1.14 | B3
11 | > 8.33 | B5
12 | 4.08 | B6
13 | 2.73 | B7

target: T1, Human FXI protein (coagulation factor …); assay: SPR (Biacore T200), antibody captured on Protein A chip, FXI as analyte, 1:1 Langmuir fit
Source text: (§1) A certain amount of antibodies to be tested was affinity-captured using a Protein A biosensor chip (Cat. #29127556, GE), then FXI/FXIa at a series of concentration gradients flowed through the surface of the chip. The reaction signals were detected in real time using a Biacore instrument (Biacore T200, GE) to obtain association and dissociation curves. After dissociation was completed for each cycle, the biochip was washed and regenerated with a regeneration solution prepared in a human antibody capture kit or a glycine-hydrochloric acid regeneration solution (pH 1.5, Cat. #BR-1003-54, GE). The buffer used in the experiment was HBS-EP+10× buffer (Cat. #BR-1006-69, GE) diluted to 1× (pH 7.4) with double distilled water.
(§2) The data obtained from the experiment were fitted using BIAevaluation version 4.1, GE software using a (1:1) Langmuir model to obtain affinity values. The test results of part of antibodies are shown in FIG. 1A, FIG. 1B and Table 6 below.

Row | Kd [nM] | koff [s⁻¹] | kon [M⁻¹ s⁻¹] | Binder
14 | 0.02 | 2.66e-05 | 1.32e+06 | B2
15 | 0.0296 | 5.85e-05 | 1.97e+06 | B3
16 | 0.0378 | 3.02e-05 | 799000 | B4

target: T2, Human FXIa protein (activated coagulation factor XI) (human, UniProt P03951 19-625); assay: SPR (Biacore T200), antibody captured on Protein A chip, FXIa as analyte, 1:1 Langmuir fit
T2 construct: Bought from Enzyme Research Laboratories (HFXIa 1111a); also called factor XIa; HFXIa 1111a
Source text: as §1, §2

Row | Kd [nM] | koff [s⁻¹] | kon [M⁻¹ s⁻¹] | Binder
17 | 0.148 | 0.000235 | 1.59e+06 | B1
18 | 0.57 | 0.000708 | 1.24e+06 | B2
19 | 0.364 | 0.000387 | 1.06e+06 | B3
20 | 0.22 | 0.000336 | 1.53e+06 | B4
21 | 0.0222 | 1.79e-05 | 873000 | B8
